Assay results reported in patent publication US20140087995A1 (published 2014).
Numbered stars: 1 amine (or outer) side, 2 acyl side, 3 side chain; on linkers, the order of the positions; unused ones are H or OH. Bridge positions count the residues as written; N and C are the ends. Side chains are listed from the residue outwards. Ends that are not written are not given here. * marks the point of attachment. C20 diacid = O=C(O)CCCCCCCCCCCCCCCCCCC(=O)*; γGlu = O=C(O)[C@H](CCC(=O)[*:2])N[*:1]; AEEA = NCCOCCOCC(=O)O

B1: N^ε1-[2-[2-[2-[[(4S)-4-carboxy-4-(19-carboxynonadecanoylamino)butanoyl]amino]ethoxy]ethoxy]acetyl]-[Arg17,Pro21,Pro27,Pro31,His35]-h-amylin (peptide)
peptide: K([AEEA-γGlu-C20 diacid])CNTATCATQRLANFLRHSSPNFGAIPSSTPVGSHTY-NH2
modifications: disulfide 2-7; N-terminus assumed
SMILES: CC[C@H](C)[C@H](NC(=O)[C@H](C)NC(=O)CNC(=O)[C@H](Cc1ccccc1)NC(=O)[C@H](CC(N)=O)NC(=O)[C@@H]1CCCN1C(=O)[C@H](CO)NC(=O)[C@H](CO)NC(=O)[C@H](Cc1c[nH]cn1)NC(=O)[C@H](CCCNC(=N)N)NC(=O)[C@H](CC(C)C)NC(=O)[C@H](Cc1ccccc1)NC(=O)[C@H](CC(N)=O)NC(=O)[C@H](C)NC(=O)[C@H](CC(C)C)NC(=O)[C@H](CCCNC(=N)N)NC(=O)[C@H](CCC(N)=O)NC(=O)[C@@H](NC(=O)[C@H](C)NC(=O)[C@@H]1CSSC[C@H](NC(=O)[C@@H](N)CCCCNC(=O)COCCOCCNC(=O)CC[C@H](NC(=O)CCCCCCCCCCCCCCCCCCC(=O)O)C(=O)O)C(=O)N[C@@H](CC(N)=O)C(=O)N[C@@H]([C@@H](C)O)C(=O)N[C@@H](C)C(=O)N[C@@H]([C@@H](C)O)C(=O)N1)[C@@H](C)O)C(=O)N1CCC[C@H]1C(=O)N[C@@H](CO)C(=O)N[C@@H](CO)C(=O)N[C@H](C(=O)N1CCC[C@H]1C(=O)N[C@H](C(=O)NCC(=O)N[C@@H](CO)C(=O)N[C@@H](Cc1c[nH]cn1)C(=O)N[C@H](C(=O)N[C@@H](Cc1ccc(O)cc1)C(N)=O)[C@@H](C)O)C(C)C)[C@@H](C)O
notes: Analogue of human amylin; also called compound 57
B2: N^ε1-[2-[2-[2-[[(4S)-4-carboxy-4-(19-carboxynonadecanoylamino)butanoyl]amino]ethoxy]ethoxy]acetyl]-[Arg17,Pro21,Pro27,Pro34,His35]-h-amylin (peptide)
peptide: K([AEEA-γGlu-C20 diacid])CNTATCATQRLANFLRHSSPNFGAIPSSTNVGPHTY-NH2
modifications: disulfide 2-7; N-terminus assumed
SMILES: CC[C@H](C)[C@H](NC(=O)[C@H](C)NC(=O)CNC(=O)[C@H](Cc1ccccc1)NC(=O)[C@H](CC(N)=O)NC(=O)[C@@H]1CCCN1C(=O)[C@H](CO)NC(=O)[C@H](CO)NC(=O)[C@H](Cc1c[nH]cn1)NC(=O)[C@H](CCCNC(=N)N)NC(=O)[C@H](CC(C)C)NC(=O)[C@H](Cc1ccccc1)NC(=O)[C@H](CC(N)=O)NC(=O)[C@H](C)NC(=O)[C@H](CC(C)C)NC(=O)[C@H](CCCNC(=N)N)NC(=O)[C@H](CCC(N)=O)NC(=O)[C@@H](NC(=O)[C@H](C)NC(=O)[C@@H]1CSSC[C@H](NC(=O)[C@@H](N)CCCCNC(=O)COCCOCCNC(=O)CC[C@H](NC(=O)CCCCCCCCCCCCCCCCCCC(=O)O)C(=O)O)C(=O)N[C@@H](CC(N)=O)C(=O)N[C@@H]([C@@H](C)O)C(=O)N[C@@H](C)C(=O)N[C@@H]([C@@H](C)O)C(=O)N1)[C@@H](C)O)C(=O)N1CCC[C@H]1C(=O)N[C@@H](CO)C(=O)N[C@@H](CO)C(=O)N[C@H](C(=O)N[C@@H](CC(N)=O)C(=O)N[C@H](C(=O)NCC(=O)N1CCC[C@H]1C(=O)N[C@@H](Cc1c[nH]cn1)C(=O)N[C@H](C(=O)N[C@@H](Cc1ccc(O)cc1)C(N)=O)[C@@H](C)O)C(C)C)[C@@H](C)O
notes: Analogue of human amylin; also called compound 58
B3: N^ε1-[2-[2-[2-[[(4S)-4-carboxy-4-(19-carboxynonadecanoylamino)butanoyl]amino]ethoxy]ethoxy]acetyl]-[Arg17,Pro21,Pro27,Pro31]-h-amylin (peptide)
peptide: K([AEEA-γGlu-C20 diacid])CNTATCATQRLANFLRHSSPNFGAIPSSTPVGSNTY-NH2
modifications: disulfide 2-7; N-terminus assumed
SMILES: CC[C@H](C)[C@H](NC(=O)[C@H](C)NC(=O)CNC(=O)[C@H](Cc1ccccc1)NC(=O)[C@H](CC(N)=O)NC(=O)[C@@H]1CCCN1C(=O)[C@H](CO)NC(=O)[C@H](CO)NC(=O)[C@H](Cc1c[nH]cn1)NC(=O)[C@H](CCCNC(=N)N)NC(=O)[C@H](CC(C)C)NC(=O)[C@H](Cc1ccccc1)NC(=O)[C@H](CC(N)=O)NC(=O)[C@H](C)NC(=O)[C@H](CC(C)C)NC(=O)[C@H](CCCNC(=N)N)NC(=O)[C@H](CCC(N)=O)NC(=O)[C@@H](NC(=O)[C@H](C)NC(=O)[C@@H]1CSSC[C@H](NC(=O)[C@@H](N)CCCCNC(=O)COCCOCCNC(=O)CC[C@H](NC(=O)CCCCCCCCCCCCCCCCCCC(=O)O)C(=O)O)C(=O)N[C@@H](CC(N)=O)C(=O)N[C@@H]([C@@H](C)O)C(=O)N[C@@H](C)C(=O)N[C@@H]([C@@H](C)O)C(=O)N1)[C@@H](C)O)C(=O)N1CCC[C@H]1C(=O)N[C@@H](CO)C(=O)N[C@@H](CO)C(=O)N[C@H](C(=O)N1CCC[C@H]1C(=O)N[C@H](C(=O)NCC(=O)N[C@@H](CO)C(=O)N[C@@H](CC(N)=O)C(=O)N[C@H](C(=O)N[C@@H](Cc1ccc(O)cc1)C(N)=O)[C@@H](C)O)C(C)C)[C@@H](C)O
notes: Analogue of human amylin; also called compound 49
B4: N^ε1-[2-[2-[2-[[(4S)-4-carboxy-4-(19-carboxynonadecanoylamino)butanoyl]amino]ethoxy]ethoxy]acetyl]-[Arg17,Pro21,Pro27,Pro34]-h-amylin (peptide)
peptide: K([AEEA-γGlu-C20 diacid])CNTATCATQRLANFLRHSSPNFGAIPSSTNVGPNTY-NH2
modifications: disulfide 2-7; N-terminus assumed
SMILES: CC[C@H](C)[C@H](NC(=O)[C@H](C)NC(=O)CNC(=O)[C@H](Cc1ccccc1)NC(=O)[C@H](CC(N)=O)NC(=O)[C@@H]1CCCN1C(=O)[C@H](CO)NC(=O)[C@H](CO)NC(=O)[C@H](Cc1c[nH]cn1)NC(=O)[C@H](CCCNC(=N)N)NC(=O)[C@H](CC(C)C)NC(=O)[C@H](Cc1ccccc1)NC(=O)[C@H](CC(N)=O)NC(=O)[C@H](C)NC(=O)[C@H](CC(C)C)NC(=O)[C@H](CCCNC(=N)N)NC(=O)[C@H](CCC(N)=O)NC(=O)[C@@H](NC(=O)[C@H](C)NC(=O)[C@@H]1CSSC[C@H](NC(=O)[C@@H](N)CCCCNC(=O)COCCOCCNC(=O)CC[C@H](NC(=O)CCCCCCCCCCCCCCCCCCC(=O)O)C(=O)O)C(=O)N[C@@H](CC(N)=O)C(=O)N[C@@H]([C@@H](C)O)C(=O)N[C@@H](C)C(=O)N[C@@H]([C@@H](C)O)C(=O)N1)[C@@H](C)O)C(=O)N1CCC[C@H]1C(=O)N[C@@H](CO)C(=O)N[C@@H](CO)C(=O)N[C@H](C(=O)N[C@@H](CC(N)=O)C(=O)N[C@H](C(=O)NCC(=O)N1CCC[C@H]1C(=O)N[C@@H](CC(N)=O)C(=O)N[C@H](C(=O)N[C@@H](Cc1ccc(O)cc1)C(N)=O)[C@@H](C)O)C(C)C)[C@@H](C)O
notes: Analogue of human amylin; also called compound 50

The binders below were run against T1, rat amylin receptor (rat calcitonin receptor + rat RAMP 3) (rat, UniProt P32214 25-516; Q9JJ73 23-147) (assay: SPA competition with 125I-rat amylin, membranes of BHK cells with rat CTR + rat RAMP3 (Assay VI)).
T1 construct: whole, on cells; Used as membranes prepared from BHK tk'ts 13 cells transiently transfected with rat calcitonin receptor and rat RAMP 3 (Assay VI); also called rAmylin-R; rat amylin 3(a) receptor
T1 sequence (looked up) 1: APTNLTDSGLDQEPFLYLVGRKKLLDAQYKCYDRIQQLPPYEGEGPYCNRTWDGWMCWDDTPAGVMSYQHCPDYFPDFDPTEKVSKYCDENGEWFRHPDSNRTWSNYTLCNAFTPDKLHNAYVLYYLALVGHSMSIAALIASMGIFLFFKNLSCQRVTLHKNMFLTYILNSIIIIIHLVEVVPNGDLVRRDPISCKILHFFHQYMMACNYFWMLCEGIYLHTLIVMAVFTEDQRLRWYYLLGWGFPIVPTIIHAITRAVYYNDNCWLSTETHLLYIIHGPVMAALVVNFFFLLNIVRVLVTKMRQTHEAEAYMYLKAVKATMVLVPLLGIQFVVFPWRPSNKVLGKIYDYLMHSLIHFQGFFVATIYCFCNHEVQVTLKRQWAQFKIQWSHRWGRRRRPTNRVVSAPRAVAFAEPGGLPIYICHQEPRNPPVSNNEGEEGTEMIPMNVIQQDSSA
T1 sequence (looked up) 2: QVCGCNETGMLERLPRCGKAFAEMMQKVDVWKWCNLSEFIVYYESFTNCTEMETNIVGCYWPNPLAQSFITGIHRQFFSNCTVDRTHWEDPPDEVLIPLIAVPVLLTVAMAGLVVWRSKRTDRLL

B1 and B2 are within 1.5-fold of each other in IC50: 0.181 nM for the first, 0.135 nM for the second.

Compared with B3, B4 is 16-fold lower in IC50: 1.08 nM for the first, 0.069 nM for the second.

The binders below were run against T2, rat calcitonin receptor (rat, UniProt P32214 25-516) (assay: SPA competition with 125I-calcitonin, membranes of BHK cells with rat CTR (Assay VIII)).
T2 construct: whole, on cells; Used as membranes prepared from BHK tk'ts 13 cells transiently transfected with the rat calcitonin receptor (Assay VIII); also called rCTR; rat calcitonin (a) receptor
T2 sequence (looked up): T1 sequence (looked up) 1

Going from B1 to B2, the IC50 falls from 24.4 nM to 10.3 nM (2.4-fold). The second is the more potent here.

Compared with B3, B4 is 9.1-fold lower in IC50: 51.4 nM for the first, 5.63 nM for the second. The second is the more potent here.

What follows are binders tested against T3, human calcitonin receptor (human, UniProt P30988 25-474) (assay: IC50 on human CTR divided by IC50 on human amylin receptor (Assays VII/V)).
T3 construct: whole, on cells; Used as membranes prepared from a BHK tk'ts 13 cell line stably transfected with the human calcitonin receptor (Assay VII); also called hCTR; hCT
T3 sequence (looked up): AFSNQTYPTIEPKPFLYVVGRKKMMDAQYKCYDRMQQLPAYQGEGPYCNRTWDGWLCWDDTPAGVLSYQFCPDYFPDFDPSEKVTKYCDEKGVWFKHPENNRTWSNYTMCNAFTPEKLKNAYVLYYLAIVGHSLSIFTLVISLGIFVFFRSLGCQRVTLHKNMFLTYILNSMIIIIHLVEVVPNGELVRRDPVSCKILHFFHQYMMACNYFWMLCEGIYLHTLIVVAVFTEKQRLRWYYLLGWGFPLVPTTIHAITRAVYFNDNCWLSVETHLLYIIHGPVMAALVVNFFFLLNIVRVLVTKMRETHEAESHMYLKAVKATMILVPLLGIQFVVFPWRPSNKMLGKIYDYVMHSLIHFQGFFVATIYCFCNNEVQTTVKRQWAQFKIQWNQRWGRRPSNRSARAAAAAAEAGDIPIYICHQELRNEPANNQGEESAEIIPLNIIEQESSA
Summary of the method: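 Competition binding by SPA uses membrane preparations (35 ng/μL final) in pH 7.4 Hepes buffer with 1 mM CaCl2 and 5 mM MgCl₂. Incubation lasts 120 min at 25° C, and IC₅₀ comes from one-site fitting.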

Compared with B1, B2 is lower in “Ratio hCT/hAmylin binding” value: 133 for the first, 109 for the second.

Going from B3 to B4, the “Ratio hCT/hAmylin binding” value rises from 10.8 to 36.

What follows are binders tested against T2, rat calcitonin receptor (assay: IC50 on rat CTR divided by IC50 on rat amylin receptor (Assays VIII/VI)).

First: B1
Second: B2
The “Ratio rCT/rAmylin binding” value of the first is higher: 135 for the first, 76.6 for the second.

First: B3
Second: B4
The “Ratio rCT/rAmylin binding” value of the first is lower: 47.7 for the first, 81.7 for the second.
